{"source": "patent US20250340649A1", "about": "(RUTGERS THE STATE UNIVERSITY OF NEW JERSEY, published 2025)", "key": {"biotinylated CD32b": {"target": "T1, biotinylated CD32b (UniProt P31994 46-217, biotinylated)", "T1 construct": "also called CD32b antigen", "T1 sequence (looked up)": "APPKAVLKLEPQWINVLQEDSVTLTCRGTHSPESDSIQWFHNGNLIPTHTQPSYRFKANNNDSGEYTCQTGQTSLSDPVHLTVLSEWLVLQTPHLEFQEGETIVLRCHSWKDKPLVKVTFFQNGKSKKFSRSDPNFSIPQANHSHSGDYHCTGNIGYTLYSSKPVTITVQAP", "experiment": "ELISA, biotinylated antigen on streptavidin plate", "method": "The purified VHHs were subjected to functional analysis using ELISA and flow cytometry. For ELISA, 50 μL of biotinylated CD16a, CD16b-NA1, CD16b-NA2, and CD32b were added to the streptavidin-coated plate and incubated for 45 min at RT. Following washing, the 100 μL of 100 nM purified VHHs were added and incubated at RT for 1 h. Next, 100 μL anti-HA tag HRP conjugated secondary antibody was added. Finally, the substrate was added for color development, and the plate was read using OD of 450 nm.\nCD32b and skim milk were also used as antigen controls. 3G8 and eBioCB16, which are anti-CD16a/b mAbs were used as antibody controls. […] CD32b is a receptor that is expressed on B cells and responsible for inhibiting B cell activation. One of the disadvantages of mAb-based therapies is the binding of their Fc region to CD32b leading to the diminished activity of humoral immunity."}, "[1]": {"target": "T2, Biotinylated Human Fc gamma RIIIB/CD16b (NA1) Protein, His, Avitag (Acrobiosystems CDB-H82E4) (human, UniProt O75015 17-200, biotinylated (Avitag))", "T2 construct": "NA1 allele; also called CD16b-NAI", "T2 sequence (O75015 other isoform, or with tags, fused parts or gaps limits assumed)": "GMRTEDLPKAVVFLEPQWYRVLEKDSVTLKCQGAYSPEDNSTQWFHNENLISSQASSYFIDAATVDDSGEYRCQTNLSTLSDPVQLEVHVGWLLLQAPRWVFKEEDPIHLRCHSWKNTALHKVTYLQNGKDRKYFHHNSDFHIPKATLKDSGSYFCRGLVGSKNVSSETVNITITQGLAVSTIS", "experiment": "BLI (Octet), biotinylated CD16b-NA1 on streptavidin sensor, VHH 1.875-60 nM", "method": "An Octet® Streptavidin (SA) Biosensor was soaked for at least 10 min in DPBS supplemented with 0.1% Casein, biotinylated CD16a, CD16b-NA1, CD16b-NA2, and HER2 antigens were loaded onto the streptavidin (SA) biosensor until 1 nm shift was reached. Next, the sensor was dipped into the washing buffer (DPBS+0.05% Tween 20+0.1% Casein) for 2 min to reach the baseline. […] Then, in the dissociation step, sensors were dipped into the washing buffer for 5 min to acquire data (Table 5). The data were then analyzed using Octet Data Analysis HT 11.1 software. The sensorgrams were subtracted from the reference and fitted into 1:1 binding model for data analysis. Finally, the affinity and kinetics were analyzed using “Association and Dissociation”."}, "[2]": {"target": "T3, Biotinylated Human Fc gamma RIIIA/CD16a (F176) Protein, Avitag, His Tag (Acrobiosystems CDA-H82E8) (human, UniProt P08637 17-208, biotinylated (Avitag))", "T3 construct": "also called biotinylated CD16a; CD16a antigen", "T3 sequence (P08637 17-208 limits assumed)": "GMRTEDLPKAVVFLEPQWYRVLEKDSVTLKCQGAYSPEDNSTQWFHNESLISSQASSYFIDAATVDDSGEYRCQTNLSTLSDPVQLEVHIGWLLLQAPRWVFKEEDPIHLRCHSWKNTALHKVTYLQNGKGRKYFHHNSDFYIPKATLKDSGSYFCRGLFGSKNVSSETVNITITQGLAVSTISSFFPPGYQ", "experiment": "ELISA, biotinylated CD16a on streptavidin plate, tenfold dilutions 0-1000 nM, anti-cMyc-HRP", "method": "For ELISA, 50 μL of biotinylated CD16a was added to the streptavidin-coated plate and incubated for 45 min at RT. […] Next, 100 μl anti-cMyc tag HRP conjugated secondary antibody (1:10,000 dilutions) was added. Finally, after washing, the substrate was added for color development, and the plate was read using OD of 450 nm."}, "CD32b on B cells": {"target": "T4, CD32b on B cells (UniProt P31994 43-310)", "T4 construct": "whole, on cells; also called B cells (CD32b+)", "T4 sequence (looked up)": "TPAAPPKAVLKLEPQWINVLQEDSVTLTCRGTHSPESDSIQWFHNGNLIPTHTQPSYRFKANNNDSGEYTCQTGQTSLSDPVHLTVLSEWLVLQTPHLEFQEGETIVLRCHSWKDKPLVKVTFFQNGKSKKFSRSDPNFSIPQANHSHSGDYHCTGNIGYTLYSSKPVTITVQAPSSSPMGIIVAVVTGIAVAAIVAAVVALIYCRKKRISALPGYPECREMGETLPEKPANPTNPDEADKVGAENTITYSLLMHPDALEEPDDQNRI", "experiment": "flow cytometry on B cells (CD32b+)"}, "[3]": {"target": "T3, Biotinylated Human Fc gamma RIIIA/CD16a …", "experiment": "BLI (Octet), biotinylated CD16a on streptavidin sensor, VHH 1.875-60 nM"}, "[4]": {"target": "T5, CD16a on NK92 (CD16+) cells (human, UniProt P08637 17-254)", "T5 construct": "whole, on cells; also called NK92 cells (CD16a+); haNK92 cells (CD16a+)", "T5 sequence (P08637 17-254 F176V)": "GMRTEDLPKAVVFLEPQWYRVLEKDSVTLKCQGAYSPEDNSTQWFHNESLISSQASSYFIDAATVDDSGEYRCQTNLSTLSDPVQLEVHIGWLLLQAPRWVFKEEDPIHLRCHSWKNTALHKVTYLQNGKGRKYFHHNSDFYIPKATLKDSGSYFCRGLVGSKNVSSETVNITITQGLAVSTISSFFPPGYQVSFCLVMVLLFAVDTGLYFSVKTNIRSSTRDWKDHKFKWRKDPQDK", "experiment": "flow cytometry, fixed haNK92 (CD16+) cells, tenfold dilutions, anti-histag-FITC", "method": "First, CD16a+NK92 was harvested and washed once using Dulbecco's phosphate-buffered saline (DPBS) supplemented with 2% FBS (2% DPBS-FBS). Next, all the cells were fixed using 3.7% paraformaldehyde for 20 min at RT, followed by washing twice. […] Following washing three times, the secondary antibody, anti-Histag antibody FITC labeled, was added. After washing, the samples were run on Cytoflex using FL1 channel."}, "CD16b on neutrophils": {"target": "T6, CD16b on neutrophils (human, UniProt O75015 17-200)", "T6 construct": "whole, on cells; also called neutrophils (CD16b+)", "T6 sequence (O75015 17-200)": "as the sequence (O75015 other isoform, or with tags, fused parts or gaps limits assumed) above, with R20S, D66N, V90I counted along it", "experiment": "flow cytometry on neutrophils (CD16b+)", "method": "For flow cytometry, haNK92 cells (CD16a+) and Neutrophils (CD16b⁺) were used. […] The human Neutrophil cells were purchased from HemaCare and cultured according to the manufacturer's protocol. First, both cell lines were harvested and washed once using DPBS supplemented with 2% FBS (2% DPBS-FBS). For each sample, 0.5×10⁶ cells were stained with antibody on ice for 60 min. In this experiment, 3G8 monoclonal antibody was used as a positive control. This antibody binds to both CD16a and CD16b. Following washing three times, the secondary antibody, anti-Histag antibody FITC labeled, was added. After washing, the samples were run on Cytoflex using FL2 channel.\nIn this experiment, NK92 cells (CD16a⁺), neutrophils (CD16b⁺), and B cells (CD32b⁺) were used as cell controls. 3G8 (anti-CD16a/b) and AT10 (anti-CD32a/b) mAbs were used as antibody controls."}}}
{"binder": "C1 anti-CD16a VHH (VHH, also called C1 clone; C1 VHH) VHH: QVQLQESGGGLVQAGGSLRLSCAASGRTFRLYRMGWFRQAPGKEREFVGSIKMIDGSTLYGDPVKGRFTISRDNTKFMAYLQMNSLKPEDTAVYYCASVSRVTGSYDSWGQGTQVTVSSYPYDVPDYAHHHHHHHH", "values": [{"measurement": "binding result", "setting": "biotinylated CD32b", "value": "no binding (tested: 100 nM)"}, {"measurement": "Kd", "setting": "[1]", "value": 119, "unit": "nM"}, {"measurement": "koff", "setting": "[1]", "value": 0.0255, "unit": "s⁻¹"}, {"measurement": "kon", "setting": "[1]", "value": 213000, "unit": "M⁻¹ s⁻¹"}, {"measurement": "EC50 (read off the curve)", "setting": "[2]", "value": "~0.3", "unit": "nM"}, {"measurement": "binding result", "setting": "CD32b on B cells", "value": "no binding"}, {"measurement": "Kd", "setting": "[3]", "value": 1.73, "unit": "nM"}, {"measurement": "koff", "setting": "[3]", "value": 0.000479, "unit": "s⁻¹"}, {"measurement": "kon", "setting": "[3]", "value": 277000, "unit": "M⁻¹ s⁻¹"}, {"measurement": "EC50 (read off the curve)", "setting": "[4]", "value": "~1", "unit": "nM"}, {"measurement": "binding result", "setting": "CD16b on neutrophils", "value": "no binding"}]}
